{
  "source": "paper PMC6322289",
  "about": "(2019)",
  "binders": {"B1": {"name": "hevein (natural protein)", "chain": "EQCGRQAGGKLCPNNLCCSQWGWCGSTDEYCSPDHNCQSNCKD"}, "B2": {"name": "pro-hevein (natural protein)", "chain": "EQCGRQAGGKLCPNNLCCSQWGWCGSTDEYCSPDHNCQSNCKDSGEGVGGGSASNVLATYHLYNSQDHGWDLNAASAYCSTWDANKPYSWRSKYGWTAFCGPVGAHGQSSCGKCLSVTNTGTGAKTTVRIVDQCSNGGLDLDVNVFRQLDTDGKGYERGHITVNYQFVDCGDSFNPLFSVMKSSVIN"}},
  "biological_target": "β-1,3-glucanase (Hevea brasiliensis (endogenous in latex …, UniProt P52407 37-356))",
  "sequence (P52407 37-356)": "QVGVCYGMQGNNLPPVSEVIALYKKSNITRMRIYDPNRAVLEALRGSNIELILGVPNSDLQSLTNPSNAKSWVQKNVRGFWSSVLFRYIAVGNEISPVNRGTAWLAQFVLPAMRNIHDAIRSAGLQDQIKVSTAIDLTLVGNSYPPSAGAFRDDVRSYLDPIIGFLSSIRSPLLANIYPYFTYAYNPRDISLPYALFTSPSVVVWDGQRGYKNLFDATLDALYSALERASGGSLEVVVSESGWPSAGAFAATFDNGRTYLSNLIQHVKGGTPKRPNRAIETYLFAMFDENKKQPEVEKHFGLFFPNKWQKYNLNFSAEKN",
  "assay": "SPR",
  "data": [
    {"binder": "B1", "values": [
      {"measurement": "koff", "result": 0.013, "unit": "s⁻¹"}
    ]},
    {"binder": "B2", "values": [
      {"measurement": "koff", "result": 0.0794, "unit": "s⁻¹"}
    ]}
  ]
}
